According to patent US20090017041A1:

Assays:
[1] = biological target: high molecular weight (HMW) proto-fibrillar (PF) oligomer enriched preparation of the Aβ1-42 peptide (Example 15) (human); assay: ELISA, fraction coated at 2 µM; antibody 0.5 µg/ml
[2] = biological target: low molecular weight (LMW) monomeric preparation of the Aβ1-42 peptide (Example 15) (human); assay: ELISA, fraction coated at 2 µM; antibody 0.5 µg/ml
[3] = biological target: high molecular weight (HMW) proto-fibrillar (PF) oligomer enriched preparation of the Aβ1-42 peptide (Example 15) (human); assay: ELISA, fraction coated at 2 µM; antibody 0.25 µg/ml
[4] = biological target: low molecular weight (LMW) monomeric preparation of the Aβ1-42 peptide (Example 15) (human); assay: as above
[5] = biological target: high molecular weight (HMW) proto-fibrillar (PF) oligomer enriched preparation of the Aβ1-42 peptide (Example 15) (human); assay: ELISA, fraction coated at 2 µM; antibody 0.125 µg/ml
[6] = biological target: low molecular weight (LMW) monomeric preparation of the Aβ1-42 peptide (Example 15) (human); assay: as above
[7] = biological target: high molecular weight (HMW) proto-fibrillar (PF) oligomer enriched preparation of the Aβ1-42 peptide (Example 15) (human); assay: ELISA, fraction coated at 2 µM; antibody 0.0313 µg/ml
[8] = biological target: low molecular weight (LMW) monomeric preparation of the Aβ1-42 peptide (Example 15) (human); assay: as above
[9] = biological target: monomer-enriched preparation of the Aβ1-42 peptide (Example 16); assay: ELISA, fraction coated at 2.2 µM; antibody dilution 1:2 (start 0.5 µg/ml)
monomer-enriched preparation of the Aβ1-42 peptide (Example 16), sequence (peptide, as listed by the source): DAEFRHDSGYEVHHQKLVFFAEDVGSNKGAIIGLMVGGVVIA

[10] = biological target: oligomer-enriched preparation of the Aβ1-42 peptide (Example 16); assay: as above
oligomer-enriched preparation of the Aβ1-42 peptide (Example 16), sequence (peptide, as listed by the source): as above

[11] = biological target: monomer-enriched preparation of the Aβ1-42 peptide (Example 16); assay: ELISA, fraction coated at 2.2 µM; antibody dilution 1:4 (start 0.5 µg/ml)
[12] = biological target: oligomer-enriched preparation of the Aβ1-42 peptide (Example 16); assay: as above
[13] = biological target: monomer-enriched preparation of the Aβ1-42 peptide (Example 16); assay: ELISA, fraction coated at 2.2 µM; antibody dilution 1:16 (start 0.5 µg/ml)
[14] = biological target: oligomer-enriched preparation of the Aβ1-42 peptide (Example 16); assay: as above
[15] = biological target: monomer-enriched preparation of the Aβ1-42 peptide (Example 16); assay: ELISA, fraction coated at 2.2 µM; antibody dilution 1:32 (start 0.5 µg/ml)
[16] = biological target: oligomer-enriched preparation of the Aβ1-42 peptide (Example 16); assay: as above
[17] = biological target: monomer-enriched preparation of the Aβ1-42 peptide (Example 16); assay: ELISA, fraction coated at 2.2 µM; assay 1; antibody dilution 1:1 (start 0.5 µg/ml)
[18] = biological target: oligomer-enriched preparation of the Aβ1-42 peptide (Example 16); assay: as above
[19] = biological target: oligomer-enriched preparation of the Aβ1-42 peptide (Example 16); assay: ELISA, fraction coated at 2.2 µM; assay 1; antibody dilution 1:4 (start 0.5 µg/ml)
[20] = biological target: monomer-enriched preparation of the Aβ1-42 peptide (Example 16); assay: ELISA, fraction coated at 2.2 µM; assay 2; antibody dilution 1:2 (start 0.5 µg/ml)
[21] = biological target: oligomer-enriched preparation of the Aβ1-42 peptide (Example 16); assay: as above
[22] = biological target: oligomer-enriched preparation of the Aβ1-42 peptide (Example 16); assay: ELISA, fraction coated at 2.2 µM; assay 3; antibody dilution 1:8 (start 0.5 µg/ml)
[23] = biological target: monomer-enriched preparation of the Aβ1-42 peptide (Example 16); assay: ELISA, fraction coated at 2.2 µM; assay 1; antibody dilution 1:64 (start 0.5 µg/ml)
[24] = biological target: oligomer-enriched preparation of the Aβ1-42 peptide (Example 16); assay: as above
[25] = biological target: oligomer-enriched preparation of the Aβ1-42 peptide (Example 16); assay: ELISA, fraction coated at 2.2 µM; assay 2; antibody dilution 1:32 (start 0.5 µg/ml)
[26] = biological target: monomer-enriched preparation of the Aβ1-42 peptide (Example 16); assay: ELISA, fraction coated at 2.2 µM; assay 2; antibody dilution 1:64 (start 0.5 µg/ml)
[27] = biological target: oligomer-enriched preparation of the Aβ1-42 peptide (Example 16); assay: as above
[28] = biological target: monomer-enriched preparation of the Aβ1-42 peptide (Example 16); assay: ELISA, fraction coated at 2.2 µM; assay 3; antibody dilution 1:64 (start 0.5 µg/ml)
[29] = biological target: oligomer-enriched preparation of the Aβ1-42 peptide (Example 16); assay: as above
[30] = biological target: monomer-enriched preparation of the Aβ1-42 peptide (Example 16); assay: ELISA, fraction coated at 2.2 µM; assay 1; antibody dilution 1:128 (start 0.5 µg/ml)
[31] = biological target: oligomer-enriched preparation of the Aβ1-42 peptide (Example 16); assay: as above
[32] = biological target: monomer-enriched preparation of the Aβ1-42 peptide (Example 16); assay: ELISA, fraction coated at 2.2 µM; assay 2; antibody dilution 1:128 (start 0.5 µg/ml)
[33] = biological target: oligomer-enriched preparation of the Aβ1-42 peptide (Example 16); assay: as above

high molecular weight (HMW) proto-fibrillar (PF) oligomer enriched preparation of the Aβ1-42 peptide (Example 15) (human), sequence (peptide, as listed by the source): as above
low molecular weight (LMW) monomeric preparation of the Aβ1-42 peptide (Example 15) (human), sequence (peptide, as listed by the source): as above

O.D. (405 nm) [1]: 2 O.D. | O.D. (405 nm) [2]: 2.13 O.D. | O.D. (405 nm) [3]: 1.44 O.D. | O.D. (405 nm) [4]: 1.56 O.D. | O.D. (405 nm) [5]: 0.863 O.D. | O.D. (405 nm) [6]: 0.999 O.D. | O.D. (405 nm) [7]: 0.286 O.D. | O.D. (405 nm) [8]: 0.329 O.D. | O.D. (405 nm), mean of 3 assays [9]: 3.59 O.D. | O.D. (405 nm), mean of 3 assays [10]: 3.59 O.D. | O.D. (405 nm), mean of 3 assays [11]: 3.27 O.D. | O.D. (405 nm), mean of 3 assays [12]: 3.37 O.D. | O.D. (405 nm), mean of 3 assays [13]: 1.98 O.D. | O.D. (405 nm), mean of 3 assays [14]: 1.92 O.D. | O.D. (405 nm), mean of 3 assays [15]: 1.36 O.D. | O.D. (405 nm), mean of 3 assays [16]: 1.32 O.D. | O.D. (405 nm) [17]: 3.67 O.D. | O.D. (405 nm) [18]: 3.36 O.D. | O.D. (405 nm) [19]: 3.1 O.D. | O.D. (405 nm) [20]: 3.48 O.D. | O.D. (405 nm) [21]: 3.55 O.D. | O.D. (405 nm) [22]: 3.23 O.D. | O.D. (405 nm) [23]: 0.81 O.D. | O.D. (405 nm) [24]: 0.93 O.D. | O.D. (405 nm) [25]: 1.3 O.D. | O.D. (405 nm) [26]: 0.94 O.D. | O.D. (405 nm) [27]: 0.88 O.D. | O.D. (405 nm) [28]: 1.08 O.D. | O.D. (405 nm) [29]: 0.95 O.D. | O.D. (405 nm) [30]: 0.64 O.D. | O.D. (405 nm) [31]: 0.62 O.D. | O.D. (405 nm) [32]: 0.75 O.D. | O.D. (405 nm) [33]: 0.61 O.D.
Substance: 6E10 control antibody
